Assay results: patent publication US5948653

Biological target: RecA (Escherichia coli?) (UniProt P0A7G6)
Test: cell_activity

Chain of RecA (Escherichia coli?) (P0A7G6 2-353): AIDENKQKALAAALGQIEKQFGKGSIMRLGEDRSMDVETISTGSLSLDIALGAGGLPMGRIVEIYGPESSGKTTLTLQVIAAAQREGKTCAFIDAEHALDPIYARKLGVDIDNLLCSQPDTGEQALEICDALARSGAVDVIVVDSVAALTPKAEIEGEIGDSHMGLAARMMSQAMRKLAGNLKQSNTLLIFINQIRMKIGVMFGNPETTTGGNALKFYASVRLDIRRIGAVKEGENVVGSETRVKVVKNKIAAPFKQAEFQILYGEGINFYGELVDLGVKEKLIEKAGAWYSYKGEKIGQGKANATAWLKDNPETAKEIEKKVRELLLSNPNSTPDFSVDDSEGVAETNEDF

Substance	activity (blue NIH3T3 cells (6/168), 0% without RecA, D-loop also seen on agarose gel) [%]	activity (homologous replacement after microinjection of RecA-coated DNA) [frequency]
lacZ 276-mer probe ; pMC1lacXpA	3.6	
CFTR 491-nt fragment (exon 10 and flanking introns) ; CFTR deltaF508 genomic locus		> 0.00025
